This note sets out measurements from patent US20240352102.

Some results are limits rather than exact numbers.

Series [1] relates to tau isoform 1N4R (4R tau, MAPT) (Homo sapiens), P10636-7. The experiment in a line: SPR. To be noted: 50 mM HEPES, 25 mM NaCl, 0.1% Tween-20, pH 7.4.
In series [2] the test system is tau isoform 1N3R (3R tau, MAPT) (Homo sapiens), P10636-4. The experiment in a line: SPR. To be noted: 50 mM HEPES, 25 mM NaCl, 0.1% Tween-20, pH 7.4; poly(A) length not restated for 3R.
Sequence of tau isoform 1N3R (3R tau, MAPT) (Homo sapiens), P10636-4 (P10636 other isoform, or with tags, fused parts or gaps): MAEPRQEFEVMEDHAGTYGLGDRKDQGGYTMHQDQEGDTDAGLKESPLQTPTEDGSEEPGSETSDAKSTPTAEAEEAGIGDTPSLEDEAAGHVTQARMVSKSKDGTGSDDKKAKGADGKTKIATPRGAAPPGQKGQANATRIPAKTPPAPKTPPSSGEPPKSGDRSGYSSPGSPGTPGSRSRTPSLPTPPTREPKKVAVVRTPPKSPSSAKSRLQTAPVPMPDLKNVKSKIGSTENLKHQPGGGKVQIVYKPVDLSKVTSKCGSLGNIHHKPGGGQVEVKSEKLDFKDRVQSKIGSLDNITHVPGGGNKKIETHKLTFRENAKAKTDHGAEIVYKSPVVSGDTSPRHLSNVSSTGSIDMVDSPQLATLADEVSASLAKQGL

Sequence of tau isoform 1N4R (4R tau, MAPT) (Homo sapiens), P10636-7 (P10636 other isoform, or with tags, fused parts or gaps): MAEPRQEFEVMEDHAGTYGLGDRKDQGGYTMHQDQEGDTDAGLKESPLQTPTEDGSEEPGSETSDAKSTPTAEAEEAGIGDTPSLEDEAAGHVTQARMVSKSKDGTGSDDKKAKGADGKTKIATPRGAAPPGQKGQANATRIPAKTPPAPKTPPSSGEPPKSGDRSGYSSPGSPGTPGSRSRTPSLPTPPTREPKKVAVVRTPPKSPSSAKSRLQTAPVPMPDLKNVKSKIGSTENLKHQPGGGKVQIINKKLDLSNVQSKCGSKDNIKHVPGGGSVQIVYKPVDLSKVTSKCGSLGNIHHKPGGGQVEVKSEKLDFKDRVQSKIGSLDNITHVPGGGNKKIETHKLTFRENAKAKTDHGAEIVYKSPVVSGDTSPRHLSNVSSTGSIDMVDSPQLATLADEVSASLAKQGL

With A [biotin poly(A)20 RNA], the dissociation constant Kd in series [1] (streptavidin chip, poly(A)20 length from FIG. 1B trace) is 7.2 nM; in series [2], 8.3 nM. In series [1], biotin tRNA-Lys had a Kd of more than 30 nM.

One may read the Kd as a measure of binding affinity in units of concentration. A low value points to tighter binding.
